{
  "source": "ChEMBL document CHEMBL1142204",
  "about": "“Cathepsin A is the major hydrolase catalyzing the intracellular hydrolysis of the antiretroviral nucleotide phosphonoamidate prodrugs GS-7340 and GS-9131” (Antimicrob Agents Chemother, 2007)",
  "proteins": {"B1": {"name": "Lysosomal protective protein (Homo sapiens), P10619 (protein)", "chain": "MIRAAPPPLFLLLLLLLLLVSWASRGEAAPDQDEIQRLPGLAKQPSFRQYSGYLKGSGSKHLHYWFVESQKDPENSPVVLWLNGGPGCSSLDGLLTEHGPFLVQPDGVTLEYNPYSWNLIANVLYLESPAGVGFSYSDDKFYATNDTEVAQSNFEALQDFFRLFPEYKNNKLFLTGESYAGIYIPTLAVLVMQDPSMNLQGLAVGNGLSSYEQNDNSLVYFAYYHGLLGNRLWSSLQTHCCSQNKCNFYDNKDLECVTNLQEVARIVGNSGLNIYNLYAPCAGGVPSHFRYEKDTVVVQDLGNIFTRLPLKRMWHQALLRSGDKVRMDPPCTNTTAASTYLNNPYVRKALNIPEQLPQWDMCNFLVNLQYRRLYRSMNSQYLKLLSSQKYQILLYNGDVDMACNFMGDEWFVDSLNQKMEVQRRPWLVKYGDSGEQIAGFVKEFSHIAFLTIKGAGHMVPTDKPLAAFTMFSRFLNKQPY"}},
  "key": {"[1]": {"substrate": "CC(C)OC(=O)[C@H](C)N[P@](=O)(CO[C@H](C)Cn1cnc2c(N)ncnc21)Oc1ccccc1", "experiment": "Activity of Cat A assessed as hydrolysis", "details": "Homo sapiens"}, "[2]": {"substrate": "CC(C)OC(=O)[C@H](C)N[P@](=O)(CO[C@H](C)Cn1cnc2c(N)ncnc21)Oc1ccccc1", "experiment": "Ratio of kcat to Km for Cat A activity", "details": "Homo sapiens"}},
  "data": [
    {"protein": "B1", "values": [
      {"measurement": "Km", "setting": "[1]", "value": 610, "unit": "µM"},
      {"measurement": "kcat/Km", "setting": "[2]", "value": "2.9e+06", "unit": "M⁻¹ s⁻¹"}
    ]}
  ]
}
